In patent US10039812B2, “Therapeutic for treating clostridium difficile infection” (priority 2012, dated 2018):

B1: RNase: RNaseA enzyme used to digest biofilm constituents (protein, UniProt P61823 27-150, looked up)
Ribonuclease pancreatic: KETAAAKFERQHMDSSTSAASSSNYCNQMMKSRNLTKDRCKPVNTFVHESLADVQAVCSQKNVACKNGQTNCYQSYSTMSITDCRETGSSKYPNCAYKTTQANKHIIVACEGNPYVPVHFDASV
B2: proteinase K: a proteinase used to digest biofilm constituents (protein, UniProt P06873 106-384, looked up)
Proteinase K: AAQTNAPWGLARISSTSPGTSTYYYDESAGQGSCVYVIDTGIEASHPEFEGRAQMVKTYYYSSRDGNGHGTHCAGTVGSRTYGVAKKTQLFGVKVLDDNGSGQYSTIIAGMDFVASDKNNRNCPKGVVASLSLGGGYSSSVNSAAARLQSSGVMVAVAAGNNNADARNYSPASEPSVCTVGASDRYDRRSSFSNYGSVLDIFGPGTSILSTWIGGSTRSISGTSMATPHVAGLAAYLMTLGKTTAASACRYIADTANKGDLSNIPFGTVNLLAYNNYQA

Columns and labels:
[1] = test system: C. difficile 630Δerm biofilm; assay: DNase, RNase and proteinase K digests of biofilm (floc) in liquid culture
[2] = test system: C. difficile R20291 biofilm; assay: DNase, RNase and proteinase K digests of biofilm in liquid culture; details: 15 minutes at the concentrations indicated (FIG. 8)
[3] = test system: C. difficile strain 630Δerm; assay: Inhibition of biofilm formation in TC flasks; details: 10 mg/ml in the growth media; incubated statically for six days (FIG. 9)
[4] = 1 mg/ml, 15 minute treatment, room temperature

Molecule	Degradation of the biofilm (floc produced in static culture) ([1]; 100 ug/ml, 15 minute treatment, room temperature)	Degradation of the biofilm (floc produced in static culture) [1, 4]	Degradation of the biofilm [2]	Formation of biofilm in liquid media [3]	Degradation of the biofilm (floc produced in static culture) ([1]; concentration increased to 2 mg/ml proteinase K (data not shown))	Degradation of the biofilm (floc produced in static culture) ([1]; incubation time increased to 24 hours (data not shown))
B1	did not disrupt the biofilm	did not disrupt the biofilm	only degraded by DNase treatment	–	–	–
B2	–	partial degradation with proteinase K was not observed	only degraded by DNase treatment	decreases biofilm formation	partial degradation	partial degradation
